Source: patent US20250297004A1, “NECTIN-4 BINDING AGENTS” (INNATE PHARMA, priority 2022, published 2025)

Experiments:
[1] = target: T1, wild-type human Nectin-4 protein (Nectin4-His-BirA) (Homo sapiens, UniProt Q96NY8); experiment: Epitope mapping by competition for binding to Nectin-4 (SPR/OCTET); settings: listed as antibody = 1st mAb injected; 10 μg/mL each
T1 construct: human Nectin4-His-BirA protein diluted to 5 μg/mL in Kinetic buffer 10× were captured onto the biosensors; BirA (biotinylation acceptor tag) (C)
T1 sequence (Q96NY8 with tags, fused parts or gaps): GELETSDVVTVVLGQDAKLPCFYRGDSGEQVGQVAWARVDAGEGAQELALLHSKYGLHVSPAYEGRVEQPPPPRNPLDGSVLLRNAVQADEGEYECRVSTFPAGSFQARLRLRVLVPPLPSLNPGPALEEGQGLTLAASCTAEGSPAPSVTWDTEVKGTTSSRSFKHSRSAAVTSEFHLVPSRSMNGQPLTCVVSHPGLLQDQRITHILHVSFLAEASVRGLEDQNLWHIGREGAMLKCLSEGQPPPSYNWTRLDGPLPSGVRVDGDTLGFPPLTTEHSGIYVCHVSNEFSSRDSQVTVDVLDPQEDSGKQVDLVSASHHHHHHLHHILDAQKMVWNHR
Protocol: Briefly, human Nectin4-His-BirA protein diluted to 5 μg/mL in Kinetic buffer 10× were captured onto the biosensors. The first antibody was injected diluted to 10 μg/mL in Kinetic buffer 10×, followed by a second injection of the first antibody diluted to 10 μg/mL in Kinetic buffer 10× in order to saturate the signal. The second antibody was injected diluted to 10 μg/mL in Kinetic buffer 10×.
Squares with “O” indicate substantial or direct competition between the 1st and 2nd antibody (1st antibody prevents/causes loss of binding of 2nd antibody), squares with “X” indicate potential partial competition (1st antibody causes a potential reduction but not loss of binding of 2nd antibody), squares with “N/A” indicate no competition.

[2] = target: T2, human Nectin-4 Mutant 7bis (human, UniProt Q96NY8 32-510); experiment: binding to HEK293T cells expressing Nectin-4 mutant
T2 construct: Expressed on transfected HEK293T cells; also called A72P/G73N/K197T/S199A
T2 chain: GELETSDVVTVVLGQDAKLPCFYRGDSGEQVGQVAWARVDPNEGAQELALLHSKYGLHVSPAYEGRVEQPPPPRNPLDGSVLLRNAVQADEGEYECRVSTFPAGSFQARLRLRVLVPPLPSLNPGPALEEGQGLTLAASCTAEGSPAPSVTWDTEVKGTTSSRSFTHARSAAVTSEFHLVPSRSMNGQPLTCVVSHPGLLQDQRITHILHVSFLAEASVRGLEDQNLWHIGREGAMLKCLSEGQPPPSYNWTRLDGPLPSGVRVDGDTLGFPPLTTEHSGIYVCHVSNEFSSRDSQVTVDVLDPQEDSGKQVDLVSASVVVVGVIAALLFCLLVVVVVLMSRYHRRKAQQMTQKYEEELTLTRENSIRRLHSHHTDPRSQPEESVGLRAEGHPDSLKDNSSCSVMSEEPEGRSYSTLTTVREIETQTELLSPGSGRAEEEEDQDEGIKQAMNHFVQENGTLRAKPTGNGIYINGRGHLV

[3] = target: T3, human Nectin-4 Mutant 7 (human, UniProt Q96NY8 32-510); experiment: as above
T3 construct: Expressed on transfected HEK293T cells; also called S195A/K197T/S199A
T3 chain: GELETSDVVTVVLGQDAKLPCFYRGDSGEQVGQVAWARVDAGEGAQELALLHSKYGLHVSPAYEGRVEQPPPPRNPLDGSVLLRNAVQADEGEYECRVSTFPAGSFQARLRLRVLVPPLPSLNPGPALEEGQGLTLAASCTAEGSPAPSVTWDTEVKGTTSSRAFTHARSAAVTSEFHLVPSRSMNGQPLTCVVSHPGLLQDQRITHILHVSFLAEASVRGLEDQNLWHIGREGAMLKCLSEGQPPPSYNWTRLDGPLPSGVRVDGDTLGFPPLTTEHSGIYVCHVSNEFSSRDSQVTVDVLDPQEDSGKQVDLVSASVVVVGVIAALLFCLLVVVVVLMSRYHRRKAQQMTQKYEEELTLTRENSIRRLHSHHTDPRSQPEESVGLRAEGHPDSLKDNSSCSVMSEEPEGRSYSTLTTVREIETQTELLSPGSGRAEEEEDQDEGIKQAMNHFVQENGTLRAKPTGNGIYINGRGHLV

[4] = target: T4, human Nectin-4 expressed on cells (human, UniProt Q96NY8 32-510); experiment: cell-based or functional assay
T4 sequence: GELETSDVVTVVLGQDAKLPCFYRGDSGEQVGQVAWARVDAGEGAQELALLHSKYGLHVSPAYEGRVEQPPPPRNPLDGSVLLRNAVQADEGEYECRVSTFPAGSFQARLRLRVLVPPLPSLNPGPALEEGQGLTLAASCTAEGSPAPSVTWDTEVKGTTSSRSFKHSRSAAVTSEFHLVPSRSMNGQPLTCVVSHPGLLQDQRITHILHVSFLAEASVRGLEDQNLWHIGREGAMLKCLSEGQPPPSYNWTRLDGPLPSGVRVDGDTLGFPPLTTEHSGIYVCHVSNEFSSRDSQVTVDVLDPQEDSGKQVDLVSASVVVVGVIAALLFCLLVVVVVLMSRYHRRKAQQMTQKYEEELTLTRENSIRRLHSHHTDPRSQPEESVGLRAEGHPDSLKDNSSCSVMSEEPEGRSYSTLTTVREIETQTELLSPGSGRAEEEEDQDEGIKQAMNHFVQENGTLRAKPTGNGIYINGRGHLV

[5] = target: T5, human Nectin-4 Mutant 1 (human, UniProt Q96NY8 32-510); experiment: binding to HEK293T cells expressing Nectin-4 mutant
T5 construct: Expressed on transfected HEK293T cells; also called S58P/G59D/Q61A/N106D/P107A
T5 chain: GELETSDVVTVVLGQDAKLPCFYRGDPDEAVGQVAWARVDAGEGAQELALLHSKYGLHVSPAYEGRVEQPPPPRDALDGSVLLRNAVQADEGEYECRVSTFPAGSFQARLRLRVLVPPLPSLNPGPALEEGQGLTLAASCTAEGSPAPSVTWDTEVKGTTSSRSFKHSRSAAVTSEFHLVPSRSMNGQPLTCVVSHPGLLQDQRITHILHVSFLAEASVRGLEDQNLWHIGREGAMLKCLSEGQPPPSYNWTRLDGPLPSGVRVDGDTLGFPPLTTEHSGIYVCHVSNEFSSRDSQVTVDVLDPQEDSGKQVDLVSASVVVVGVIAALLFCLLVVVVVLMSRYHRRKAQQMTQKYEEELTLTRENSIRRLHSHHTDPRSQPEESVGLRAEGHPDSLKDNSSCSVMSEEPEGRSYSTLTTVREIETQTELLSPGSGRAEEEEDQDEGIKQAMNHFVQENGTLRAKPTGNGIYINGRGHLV

B1: 5E7 (antibody, V domains shown)
VH: QVQLQQPGAELVKPGASVKLSCKASGYIFTSYWMHWVKQRPGQGLEWIGEIDPSDSYTNYNQKFKGKATLTLDKSSSTTYMQLSSLTSEDSAVYYCVRGYGNYGDYWGQGTTLTVSSASTKGP
VL: DVVMTQAAFSNPVTLGTSASISCRSSKSLLHSNGITYLYWYLQKPGQSPQLLIYQMSNLASGVPDRFSSSGSGTDFTLRISRVEAEDVGVYYCAQNLELPWTFGGGTKLEIKRTVAAP
competition, 2nd mab injected: 5E7 [1]: ◯

B2: N41 (antibody, V domains shown)
VH: QVQLKQSGPGLVQPSQSLSITCTVSGFSLTNYGVHWVRQSPGKGLEWLGVIWSGGSTDYNAAFISRLSISKDTSKSQVFFKMNSLQADDTAIYYCARELIHAMDNWGQGTSVTVSS
VL: DIQMTQSPASLSVSVGETVTITCRASENIYSNLAWYQQKQGNSPQLLVFAATNLADGVPSRFSGSGSGTQYSLKINSLQSEDFGTYYCQHFWGTPTFGGGTKLEIK
binding result [2]: binds | binding result [3]: binds | competition, 2nd mab injected: 14A5 [1]: ◯ | competition, 2nd mab injected: MABT64 [1]: ◯ | competition, 2nd mab injected: N41 [1]: ◯

B3: chimeric parental 5E7 antibody (antibody, V domains shown)
VH: QVQLQQPGAELVKPGASVKLSCKASGYIFTSYWMHWVKQRPGQGLEWIGEIDPSDSYTNYNQKFKGKATLTLDKSSSTTYMQLSSLTSEDSAVYYCVRGYGNYGDYWGQGTTLTVSS
VL: DVVMTQAAFSNPVTLGTSASISCRSSKSLLHSNGITYLYWYLQKPGQSPQLLIYQMSNLASGVPDRFSSSGSGTDFTLRISRVEAEDVGVYYCAQNLELPWTFGGGTKLEIKR
notes: Chimeric antibody, murine variable domains with human constant regions; also called ch5E7; CHG1-M-1N4-5E7
internalization efficiency on MDA-MB-468, normalized to chimeric parental antibody (Fab-ZAP, CTG), first column [4]: 100 % of chimeric parental | internalization efficiency on MDA-MB-468, normalized to chimeric parental antibody (Fab-ZAP, CTG), second column [4]: 100 % of chimeric parental | binding result [5]: binds
